Reference: publication PMC4900533

Key:
[1] = confocal microscopy, apical marker gp135, MDCKII; conditions: glycan lost; control: wild type
[2] = immunoblot of PNGase F-treated MDCKII lysates, densitometry; conditions: glycan lost; control: wild type
[3] = immunoblot after 24 h 2 μM MG132; conditions: glycan lost; control: wild type
[4] = cycloheximide chase, immunoblot, MDCKII; conditions: glycan lost; control: wild type
[5] = confocal microscopy after 12 h cycloheximide; conditions: glycan lost; control: wild type
[6] = immunoblot, high vs low glucose medium, MDCKII; conditions: glycan lost; control: wild type
[7] = immunoblot of ABCC11 WT, with/without PNGase F, MDCKII; conditions: glycan lost; control: high glucose medium
[8] = immunoblot, ABCC11-EGFP in MDCKII, PNGase F-treated lysates; conditions: glycan lost; control: untreated cells
[9] = immunoblot, non-tagged ABCC11, adenovirus-infected MDCKII; conditions: glycan lost; control: untreated cells

**Q.** Which results are given for ABCC11 (MRP8): Q838?
**A.** localisation_or_trafficking [1]: no change; expression_or_secretion, percent_of_wt [2]: no change

**Q.** Which “other: MG132-sensitive degradation, fold_change” value [3] does the source give for ABCC11 (MRP8): Q838/844 here?
**A.** increases, about 2-fold vs no significant difference

**Q.** And the “degradation_or_half_life, half_life” value [4]?
**A.** decreases, about 6.2 vs about 12

**Q.** And the degradation_or_half_life [5]?
**A.** decreases

**Q.** And the “other: glucose sensitivity of protein level” value [6]?
**A.** abolishes

**Q.** And the “expression_or_secretion, percent_of_wt” value [2]?
**A.** decreases

**Q.** For ABCC11 (MRP8): Q844, which localisation_or_trafficking [1] is on record?
**A.** no change

**Q.** What about the “expression_or_secretion, percent_of_wt” value [2] of the same substance?
**A.** no change

**Q.** For ABCC11 (MRP8): low glucose medium, which expression_or_secretion [7] is on record?
**A.** decreases

**Q.** With “ABCC11 (MRP8): tunicamycin (0.8, 4.0 μg/mL)” as the substance, how does the expression_or_secretion [8] read?
**A.** decreases

**Q.** Which “expression_or_secretion, other: percent of untreated control” value [9] does the source give for ABCC11 (MRP8): tunicamycin (4.0 μg/mL) here?
**A.** decreases
